B1: Human His-Gαi3 WT [human] / Fluorescein-labelled RGS12 GoLoco peptide (residues 1,185–1,221) [modified: 5,6-carboxyfluorescein coupled to the resin-bound peptide after chain elongation; 5,6-carboxyfluorescein coupled to the resin-bound … (parent complex)
chain 1: MGCTLSAEDKAAVERSKMIDRNLREDGEKAAKEVKLLLLGAGESGKSTIVKQMKIIHEDGYSEDECKQYKVVVYSNTIQSIIAIIRAMGRLKIDFGEAARADDARQLFVLAGSAEEGVMTPELAGVIKRLWRDGGVQACFSRSREYQLNDSASYYLNDLDRISQSNYIPTQQDVLRTRVKTTGIVETHFTFKDLYFKMFDVGGQRSERKKWIHCFEGVTAIIFCVALSDYDLVLAEDEEMNRMHESMKLFDSICNNKWFTETSIILFLNKKDLFEEKIKRSPLTICYPEYTGSNTYEEAAAYIQCQFEDLNRRKDTKEIYTHFTCATDTKNVQFVFDAVTDVIIKNNLKECGLY
chain 2: DEAEEFFELISKAQSNRADDQRGLLRKEDLVLPEFLR

Variants of: B1
Assay: fluorescence polarisation

| Kd | Variant |
| --- | --- |
| 63 nM | chain 1 W258F |
| 80 nM | chain 1 L37A |
| 176 nM | chain 1 L39A |
| 77 nM | chain 1 N256A |
| 86 nM | chain 1 K257A |
| 83 nM | chain 1 I184A |
| 119 nM | chain 1 L36A |
| 551 nM | chain 1 F215A |

— publication PMC5454376 (2017)
